Laboratory results as given in the nanobody polyreactivity screen of Harvey et al. (2022).

Test: yeast display, Sf9 membrane polyspecificity reagent, FACS + sequencing; frameworks hold sequencing errors
Method in brief: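 Galactose induction of a Saccharomyces cerevisiae BJ5465 synthetic nanobody display library ran 36–48 hours. The cells were then stained for 1 hour at 4 °C with 10% biotinylated, detergent-solubilized Sf9 membrane reagent, pulled down on streptavidin microbeads and FACS-sorted into low and high (top ~1%) gates on expression and reagent-binding fluorescence. Labels for polyreactivity follow the gate of origin.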

| Sequence | polyreactivity (PSR sort gate) |
| --- | --- |
| QVQLVESGGGLVQAGGSLRLSCAASGYIFPGNAMGWYRQAPGKERELVAAISSRGGRTYYADSVKGRFTISRDNAKNTVYLQMNSLKPEDTAVYYCAKGGKVGSTLEYDYWGQGTQVTVSS | high polyreactivity |
| QVQLVESGGGLVQAGGSLRLSCAASGYIFPTNAMGWYRQAPGKERELVAVITSGGSTYYADSVKGRFTISRDNAKNTVYLQMNSLKPEDNAVYYCAARYPGRYGIYRVLYGYWGQGTQVTVSS | high polyreactivity |
| QVQLVESGGGLVQAGGSLRLSCAASGYIFPYYAMGWYRQAPGKERELVAAISRSGGGTYYADSVKGRFTISRDNAKNTVYLQMNSLKPEDTAVYYCNRRSGHVHEYDYWGQGTQVTVSS | low polyreactivity |
| QVQLVESGGGLVQAGGSLRLSCAASGYIFQDYAMGWYRQAPAKERELVARISAGGGRTYYADSVKGRFTISRDNAKNTVYLQMISLKPEDTAVYYCAAPLSYYWVYIVRYGYDYWGQGTQVTVSS | low polyreactivity |
| QVQLVESGGGLVQAGGSLRLSCAASGYIFRFNAMGWYRQAPGKERELVAVNTSGARTYYADSVKGRFTISRDNAKNTVYLQMNSLKPEDTAVYYCNAGARRYLYDYWGQGTQVTVSS | low polyreactivity |
| QVQLVESGGGLVQAGGSLRLSCAASGYIFRGYVMGWYRQAPGKERELVAAITSSGGSTYYADSVKGRFTISRDNAKNTVYLQMISLKPEDTAVYYCAARGYSPHYYWGQGTQVTVSS | high polyreactivity |
| QVQLVESGGGLVQAGGSLRLSCAASGYIFRVYAMGWYRQAPGKERELVAAISSGGSTYYADSVKGRFTISRDNAKNTVYLQMNSLKPEDTAVYYCAKAGLALYAFRDDYWGQGTQVTVSS | low polyreactivity |
| QVQLVESGGGLVQAGGSLRLSCAASGYIFSGYAMGWYRQAPGKERELVAAISSNGGSTYYADSVKGRFTISRDNAKNTVYLQMNSLKPEDTAVYYCNRGLAARVGRGDYWGQGTQVTVSS | low polyreactivity |
| QVQLVESGGGLVQAGGSLRLSCAASGYIFSHYAMAWYRQAPGKERELVAAISRNGGSTYYADSVKGRFTISRDNAKNTVYLQMNSLKPEDTSVYYCAVGWKYRYGYWGQGTQVTVSS | high polyreactivity |
| QVQLVESGGGLVQAGGSLRLSCAASGYIFSVNAMGWYRQAPGKERELVAAIRGSGGSTFYADSVKGRFTISRDNAKNTVYLQMNSLKPEDTAVYYCAAYWRGRYDYWGQGTQVTVSS | low polyreactivity |
| QVQLVESGGGLVQAGGSLRLSCAASGYIFSYNAMGWYRQAPGKERELVAAISRTGGSTNYADSVKGRFTISRDNAKNTVYLQMNSLKPEDTAVYYCAKRYRYPSWGEYGYWGQGTQVTVSS | high polyreactivity |
| QVQLVESGGGLVQAGGSLRLSCAASGYIFTPYAMGWYRQAPGKERELVAAITGSGSSTYYADSVKGRFTISRDNAKNTVYLQMNSLKPEDTAGYYCAADSYGFYGYYYYELEYWGQGTQVTVSS | low polyreactivity |
| QVQLVESGGGLVQAGGSLRLSCAASGYIFTYNALGWSRQAPGKDRELVAAISSGHGRTYYADSVKGRFTISRDHAQNTVDLEMNSLKPEDTAVYYCNASRVVYRQAYLYGYDYWGQGTQVTVSS | low polyreactivity |
| QVQLVESGGGLVQAGGSLRLSCAASGYIFVFNTMGWYRQAPGKERELVASISWDAGSTYYADSVKGRFTISRDNAKNTVYLQMNSLKPEDTAVDYCNAGRIRSGSPDYWGQGTQVTVSS | low polyreactivity |
| QVQLVESGGGLVQAGGSLRLSCAASGYIFVKNAMGWYRQEPGKERELVAAISSSGGSTYYADSVKGRFTISRDNAKNTVYLQMNSLKPEDTAVYYCNVYGSYTSVSRQSDWWPDYGYWGQGTQVTVSS | low polyreactivity |
| QVQLVESGGGLVQAGGSLRLSCAASGYIFVRNAMGWYRQAPGKERELVAAISGSGGSTYYADSVKGRFTISRDNAKNTVYLQMNSLKPEDTAVYYFAADYATVTWRGIAYDYWGQGTQVSVSS | low polyreactivity |

| Sequence | polyreactivity (PSR sort gate) |
| --- | --- |
| QVQLVESGGGLVQAGGSLRLSCAASGYIFVRNAMGWYRQAPGKERELVAAISGSGGSTYYADSVKGRFTISRDNAKNTVYLQMNSLKPVDTAVYYCAADYATVTWRGIAYDYWGQGTQVTVSS | low polyreactivity |
| QVQLVESGGGLVQAGGSLRLSCAASGYIFVRYAMGWYRQAPGKEREFVAAISSSGGSTRYADSVKGRFTISRDNAKNTVYLQMNSLKPEDTAVYYCAATRVARHGSPMYYWGQGTEVTVSS | high polyreactivity |
| QVQLVESGGGLVQAGGSLRLSCAASGYIFVWYDMGWYRHAPGKERELVAAITWSGGSTYADSVKGRFTISRDNAKNTVYLQMNSLIPEDTAVDYCNADNNLDVYVDYGFNYWGQGTQVTVSS | low polyreactivity |
| QVQLVESGGGLVQAGGSLRLSCAASGYIFYFNAMGWYRQAPGKEREVVAAITFSGGATYYADSVKGRFTISRDTAKNTVYLQMNSLKPEDTAVYYCAAASRRSGAYTFYRTTSGAYGYWGQGTQVTVSS | high polyreactivity |
| QVQLVESGGGLVQAGGSLRLSCAASGYIFYGYVMGWYRQAPGKERELVAGITYSGGGGTHYADSVKGRFTISRDNAKNTVYLQMNSLKPEDTAVYYCATADPQLNRTYYSYGMDYWGQGTQVTVSS | low polyreactivity |
| QVQLVESGGGLVQAGGSLRLSCAASGYIFYTYAMGWYRQAPGKERELVAGITGSGGSTYYADSVKGRFTISRDNAKNTVYLQMNSLKPEDTAVYYCANDIYQIGYRRYDSWGQGTQVTVSS | low polyreactivity |
| QVQLVESGGGLVQAGGSLRLSCAASGYIIFGNAMGWYRQAPGKERELVAAIRWRGTSTYYADSVKGRFTISRDNAKNTVYLQMNSLKPEDTAVYYCAADVVRSNFYGTFLYDYDYWGQGTQVTVSS | low polyreactivity |
| QVQLVESGGGLVQAGGSLRLSCAASGYIILLYAMGWYRQAPGKERELVAAISTRDGSTYYADSVKGRFTISRDNGKITVYLQMNSLNPEDTAVYYCATLYYYNYCGQGTQVTVSS | high polyreactivity |
| QVQLVESGGGLVQAGGSLRLSCAASGYIIRGYVMGWYRQAPGKERELVAAITSRGDSTYYADSVKGRFTISRDNAKNTVYLQMNSLIPEDTAVYYCYFYFRRQYEHEYWGQGTQVTVSS | high polyreactivity |
| QVQLVESGGGLVQAGGSLRLSCAASGYILGVYAMGWYRQAPGKERDLVASISRSGGSTYYADSVKGRFTISRDNAKNTVYLQMNSLKTEDSAVYYCSNRSRTAHFRLRYDYWGQGTQVTVSS | low polyreactivity |
| QVQLVESGGGLVQAGGSLRLSCAASGYILHRNAMGWYRQAPGKERELVAVISWGGTSTYYADSVKGRFTISRDNAKNTVYLLMNSLKPEDTAVYYCNAKGWYYKYDYWGQGTQVNVSS | high polyreactivity |
| QVQLVESGGGLVQAGGSLRLSCAASGYILRYYGLGWYRQAPGKERELVAAITRGVSTNYADSVKGRFSISRDNAKNTVYLKMNSLKPEDTAVYYCAAKYYPYSSLSKPWTMDYWGQGTQVTVSS | low polyreactivity |
| QVQLVESGGGLVQAGGSLRLSCAASGYILTHYAMGWYRQAPGKERELVAAITRVGNSNYADSVKGRFTISRDNAKNTVYLQMNSLKPEDTAVYYCAADGVASLFGDPPTEFDYWGQGTQVTVSS | low polyreactivity |
| QVQLVESGGGLVQAGGSLRLSCAASGYISRYNTMGWYRHAPGKERELVAAITWSGGSTYADSVKGRFTISRDNAKNTVYLQMNSLKQEDTAVYYCAAGAYIWDNYSYRWYDYWGQGTQVTVSS | high polyreactivity |
| QVQLVESGGGLVQAGGSLRLSCAASGYIVDRNAMGWYRQAPGKERELVAAITKRGGITYYADSVKGRFTISRDNAKNTVYLQMNSLKPEDTAVYYCNALARSSRYDYWGQGTQVTVSS | low polyreactivity |
